The results in this text go back to patent US20220281965A1 (AstraZeneca / MedImmune, published 2022).

In general, IC50 refers to the point on the concentration scale where inhibition reaches its midpoint.

Test [1] concerns the target T1, mature human GDF-15 (human, UniProt Q99988 197-308).
T1 construct: Homodimer; also called hGDF-15; recombinant hu-GDF15
T1 sequence: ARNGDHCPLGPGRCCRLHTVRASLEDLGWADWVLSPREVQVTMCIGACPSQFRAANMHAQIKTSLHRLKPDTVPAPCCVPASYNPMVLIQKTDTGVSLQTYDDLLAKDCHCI
Briefly: HTRF epitope competition; competitor DyLight 650 labelled Antibody A; Europium labelled human GDF-15. An excerpt:
Antibodies from the immunizations with human GDF-15, in the form of crude supernatants from the immunization or in the form of purified IgGs, were chosen on the basis that they bind and compete with an epitope recognized by a control anti-GDF-15 antibody “Antibody A”. A biochemical epitope competition format was applied using an HTRF epitope competition assay that measured the binding of DyLight 650 labelled Antibody A to Europium labelled human GDF-15 (Prospec). In the absence of Antibody A binding, there is no detectable FRET fluorescence. When Antibody A binds to GDF-15, the resulting physical proximity between the secondary reagent donor/acceptor pair results in FRET. Competition with an antibody that recognizes the same or similar epitope will result in a dose dependent reduction of the FRET signal. FRET was measured ratiometrically [665 nm (acceptor)/620 nm (donor)] on an Envision plate reader, and IC₅₀ values were determined by curve fitting the data to a four parameter logistic equation using PRISM 6® software (Graphpad).

Test [2] concerns the target T2, human BMP7 (R&D Systems 354-BP/CF) (human, UniProt P18075 293-431).
T2 construct: Bought protein, adsorbed on the ELISA plate
T2 sequence (looked up): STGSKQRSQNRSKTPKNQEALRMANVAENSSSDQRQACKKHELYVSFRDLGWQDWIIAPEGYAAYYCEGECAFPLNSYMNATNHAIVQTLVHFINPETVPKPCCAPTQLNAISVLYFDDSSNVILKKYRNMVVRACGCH
Briefly: antigen presentation ELISA: human BMP7 adsorbed on a Nunc Maxisorp plate, titration of IgG, anti-human IgG-HRP, TMB, absorbance at 450 nm. Here is the method: (§1) Purified humanized IgGs were screened for binding to human GDF-15 over two further members of the same family, TGFβ1 (R&D Systems 240-B) and BMP7 (R&D Systems 354-BP/CF), using a standard antigen presentation ELISA. Human GDF-15, human TGFβ1 or human BMP7 were adsorbed onto a Nunc Maxisorp™ plate. After removal of excess unbound antigen, a titration of test IgG was added to the plate. After a 1-hour incubation, the unbound IgG was removed. The extent of IgG binding was determined by addition of an anti-human IgG antibody conjugated to the horseradish peroxidase (HRP) enzyme and measuring the optical absorbance at 450 nm of the product of its reaction with the substrate TMB.

The target in test [3] is T3, human TGFβ1 (R&D Systems 240-B) (human, UniProt P01137 279-390).
T3 construct: Bought protein, adsorbed on the ELISA plate
Briefly: antigen presentation ELISA: human TGFβ1 adsorbed on a Nunc Maxisorp plate, titration of IgG, anti-human IgG-HRP, TMB, absorbance at 450 nm. The protocol: as §1
For orientation: In an ELISA, binding on a coated surface is turned into a signal by an enzyme label.

Where a chain is given by its changes, count along the chain named.

T3 sequence (P01137 279-390 limits assumed): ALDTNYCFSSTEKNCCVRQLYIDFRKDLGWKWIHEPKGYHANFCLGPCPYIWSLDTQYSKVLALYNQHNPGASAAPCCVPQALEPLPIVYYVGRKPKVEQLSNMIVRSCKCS

B1: AB1170247 (antibody, IgG1, V domains shown)
VH: QVQLVQSGSELKKPGASVKVSCKASGYTFTSYDINWVRQAPGQGLEWIGWIYPRDGISKYNEKFKGRATLTVDTSASTAYMELSSLRSEDTAVYYCAGTYDPAYFDYWGQGTTVTVSS
VL: EIVLTQSPATLSVSPGERATLSCRASQSISYYLHWYQQKPGQAPRLLIKYASQSISGVPDRFSGSGSGTDFTLKISRVEAEDFGVYYCQQSNSWPYTFGGGTKVEIK
notes: Humanized IgG1 TM; not shown: human immunoglobulin kappa light chain constant domain
For the molecule B1, the IC50 in test [1] is 11.3 nM. Also, the binding result in test [2] and in test [3] was “no binding (tested: 5 µg/mL)” in each case.

B2: AB1170248 (antibody, IgG1, V domains shown)
VH: QVQLVQSGSELKKPGASVKVSCKASGYTFTDYNMDWVRQAPGKGLEWIGDINPYNGITIYNQKFKGRATLTVDKSTSTAYMELRSLRSDDTAVYYCAREEKLGTSFDYWGQGTTVTVSS
VL: DIQMTQSPSSLSASVGDRVTITCRASENIYSNLAWYQQKPGKAPKLLVYAATNLADGVPSRFSGSGSGTDFTLTISSLQPEDFATYYCQHFYGTPWTFGQGTKLEIK
notes: as for B1
For the molecule B2, in test [1], the IC50 was determined as 1.58 nM. Moreover, the binding result in test [2] and in test [3] was “no binding (tested: 5 µg/mL)” in each case.

B3: AB1170246 (antibody, IgG1, V domains shown)
VH: QVQLQESGPGLLKPSQTLSLTCTVSGFSLITSGLGVSWIRQPAGKGLEWLAHIYWDDDKRYNPSLKSRLTISKDTSKNQVSLKLSSVTAADTAVYYCARGGYDGYYDYWGQGTTVTVSS
VL: DVVMTQSPLSLPVTLGQPASISCRSSQSIVHSNGNTNLEWYLQKPGQSPQLLIYKVSNRLSGVPDRFSGSGSGTDFTLKISRVEAEDVGVYYCFQGSHVRTFGQGTKLEIK
notes: as for B1
With B3, the IC50 in test [1] turned out to be 4.99 nM. Further, the binding result in test [2] and in test [3] was “no binding (tested: 5 µg/mL)” throughout.

B4: AB1170244 (antibody, IgG1, V domains shown)
VH: EVQLVESGGGLVKPGGSLRLSCAASGFTFSSYAMSWVRQAPGKGLEWVAYISSGGDNIYYADTVKGRFTISRDNSKNTLYLQMNSLKTEDTAVYYCTRALVENAYFDYWGQGTTVTVSS
VL: DSVLTQSPDSLAVSLGERATINCRASKSVSTSTYSYMHWYQQKPGQPPKLLIKYASYLESGVPDRFSGSGSGTDFTLKISRVEAEDVGVYYCQHSREFPWTFGGGTKVEIK
notes: as for B1
With B4, the IC50 in test [1] is 1.17 nM. For the same molecule, the binding result in test [2] and in test [3] was “no binding (tested: 5 µg/mL)” in each case.

B5: AB1170245 (antibody, IgG1, V domains shown)
VH: B4 VH with N57Y, E102D
VL: DIVLTQSPDSLAVSLGERATINCRASKSVSTSSYSYMHWYQQKPGQPPKLLIKYASYLEFGVPSRFSGSGSGTDFTLTISSLQPEDVATYYCQHSREFPWTFGGGTKVEIK
notes: as for B1
Turning to B5, in test [1], the IC50 worked out at 2.23 nM. The binding result in test [2] and in test [3] was “no binding (tested: 5 µg/mL)” each time.
